B1: human VASH1 core (VASH1c) region (amino acids 56–310) (domain or fragment)
chain: not shown
notes: vasohibin-1 (VASH1), human, core region, amino acids 56-310; the final model holds amino acids 56-304 (chain A); cut with TEV protease before crystallisation; Residues of the TEV sites may be left at the ends; also called vasohibin-1; source: E. coli One Shot BL21 Star (DE3) pLysS, purified (HisTrap FF, SP Sepharose, TEV cleavage, SP Sepharose, Superdex 200); not shown: MBP, N-terminal, cleaved; …
B2: human small vasohibin-binding protein (SVBP) (amino acids 2–66) (natural protein, UniProt Q8N300 2-66, looked up)
chain: DPPARKEKTKVKESVSRVEKAKQKSAQQELKQRQRAEIYALNRVMTELEQQQFDEFCKQMQPPGE
notes: the final model holds amino acids 26-53 (chain B); Expressed at the C-terminal end of the fusion MBP-His6-5xTEV-VASH1(56-310)-2xTEV-SVBP(2-66) and set free by TEV protease; Residues of the TEV site may be left at its N-terminus; source: E. coli One Shot BL21 Star (DE3) pLysS, purified (HisTrap FF, SP Sepharose, TEV cleavage, SP Sepharose, Superdex 200)

Tests used:
[1] = biological target: the molecule itself; assay: crystal structure; purified VASH1c–SVBP complex (17.7 mg/ml), sitting-drop vapor diffusion at 20°C, 0.16 M ammonium sulfate, 0.08 M sodium acetate pH 4.6, 20% PEG 4000, 20% glycerol; space group P6(1)22, 2.3 Å; heterotetramer formed by a crystallographic twofold axis
[2] = biological target: B1; assay: as above; conditions: both partners purified

Binder | binding result [1] | binding result [2]
B1 | binds | 
B2 |  | binds

— article PMC7543661, “The crystal structure of the tetrameric human vasohibin-1–SVBP complex reveals a variable arm region within the structural core” (Acta Crystallographica. Section D, Structural Biology, 2020)
